Laboratory results as given in the supplement of paper PMC9170038.

Test system: MS2 coat protein
Test: apparent KD of MS2 coat protein; designed switch direction (-1 OFF switch, 1 ON switch): -1; higher = weaker reporter binding
Procedure, shortened: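 Normalised cluster fluorescence was curve-fitted, and each design's median over clusters is its apparent KD. Before this, SNAP-549-labelled MS2 coat protein was titrated from 0.7 or 1.5 nM, doubling to 3 µM, over RNA switches transcribed on Illumina chips by stalled E. coli RNA polymerase. Titrations had no input, 200 uM small-molecule ligand, or an oligonucleotide input, and steps lasted 0.8–1.5 h (lowest) to 10–20 min (highest).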

[1] = Eterna round: R95, input ligand: microRNA oligo, concentration not stated
[2] = Eterna round: R95, input ligand: FMN 200 uM
[3] = Eterna round: R95, input ligand: none
[4] = input ligand: microRNA oligo, concentration not stated

Sequence	apparent KD of MS2 coat protein [1] [nM]	apparent KD of MS2 coat protein (input ligand: FMN 200 uM) [nM]	apparent KD of MS2 coat protein (input ligand: none) [nM]	apparent KD of MS2 coat protein [2] [nM]	apparent KD of MS2 coat protein [3] [nM]	apparent KD of MS2 coat protein [4] [nM]
AUACUCGUUGUGAGGAUAUCGUUUUCUUUACGGAUCGAGAAGGCACAUGAGGAUCACCCAUGUUUGACGUGAAU [JR_BMOE4_Sub093] (puzzle: Brourd's mod of Exclusion 4)	30.8	–	–	–	–	–
AAUAACGAGCCGAUCCUCCACAUGAGGAUCACCCAUGUGUUCGUCUUGUAAAGUACUAUCACGAAAGUGAUAGUACA [mod jandersonlee] (Eterna round: R97, puzzle: Sensor, turn-off variant 1)	–	1100	1040	–	–	–
CCGUGCACGCUGCGGUCCUACAUGAGGAUCACCCAUGUGGUCUGGUGGCGUGGGUCGCCGGACUUGGCUCGUCUUGA [salish99_S_TOV1_R5_021] (Eterna round: R97, puzzle: Sensor, turn-off variant 1)	–	18.8	19.2	–	–	–
GAGAACUGAGGAUAUACAUGAGGAUCACCCAUGUUGAGAAGAAAGUAUAAAAGAUUGUGUAGAAGGCAGAGAGA [JR_Ex3_Sub069] (Eterna round: R97, puzzle: Exclusion 3)	–	52.3	35.8	–	–	–
AGUCCACAUGAGGAUCACCCAUGUCAGGAUAUACGCAAUACAAAAGAACCCAUCAAAAGUAGAAGGGACAGGGA [Getequ] (puzzle: Exclusion 1)	10	–	–	13.5	9.06	–
AACAAGCUUUAAAGAUCCUACAUGAGGAUCACCCAUGUGCUCGUCUUGUAACGUACUGUGACGAAAGUCACGGUACG [JL TOV1 3.27] (Eterna round: R97, puzzle: Sensor, turn-off variant 1)	–	205	278	–	–	–
UAGCAUUGCCUUUGGUAGUGCUUUACAUGAGGAUCACCCAUGUAGGAUAUGGUCGGCUUUGCUGACCAGAAGGACAUGUGUAUU [MOD ENG3 1.04 by JL] (Eterna round: R96, puzzle: Exclusion NG 3)	–	130	80.7	–	–	94.4
UCUUCACAUGAGGAUCACCCAUGUCAGGAUAUGCUCCCGAGUCACCUUAUCAUGGGACGCAGAAGGGACAUUAU [EX1 B.3] (Eterna round: R97, puzzle: Exclusion 1)	–	43	19.8	–	–	–
UUAAUUCUGAUUCUUGAAAUACAUGAGGAUCACCCAUGUUCACAGGAUAUUGAUUAUGGUAGUAACAAGAAGGGUGUAUCAUAU [JR_ExcNG3_Sub039] (Eterna round: R96, puzzle: Exclusion NG 3)	–	–	–	–	–	64.8
GAUUGACAUGAGGAUCACCCAUGUGAGGAUAUCGGCUGGACCGUGUUGGCUUGGCUUUCGAGAAGGCGCAUAGG [Exclusion 1 V47] (puzzle: Exclusion 1)	42.6	–	–	53.9	53.7	–
AAUUAACAUGUAGGAUAUCUGCACGUGUAGUGCAGAGAAGGACAUGAGGAUCACCCAUGUAUAGCGACUUCGGUCGCAAUAAUU [ENG1/2-B3] (Eterna round: R96, puzzle: Exclusion NG 1)	–	313	140	–	–	119
CCGAAGUGGCGGUCCUAUGACAUGAGGAUCACCCAUGUACUUCGCCACGAGCUUUUUGCUCGUCUUAUAGUUCUCGG [Sensor v3, turn-off variant 1 (MOD of Ator)] (puzzle: Sensor v3, turn-off variant 1)	32.4	–	–	435	504	–
GUGUACGAAGGAUAUACAUGAGGAUCACCCAUGUGAAUAAGAUAGAAUAAGAUAAAGUGUAGAAGGUCGAGUGU [Excluse me!!! 7 - Jieux - Exclusion 3] (puzzle: Exclusion 3)	27.1	–	–	–	–	–
UAAGAUUACCGAGGAUAUGGUAGUACAUAUUAACCAGAAGGCGGACUCAACAUGAGGAUCACCCAUGUAUAAAGGGUAUUAGGU [JR_ExcNG1_Sub042] (Eterna round: R96, puzzle: Exclusion NG 1)	–	84.7	60.3	–	–	60.3
CCGGUAGCAUAGGAUAUCGCCAACGUUGUAGUACGAGAAGGGUGCACAUGAGGAUCACCCAUGUUUCCUGGCCG [Eternabot (L2) Solution 63] (Eterna round: R97, puzzle: Exclusion 6)	–	107	131	–	–	–
AUAUAGAUGGUCAGGAUAUGCUAGUGAUAACAGUAGCAGAAGGGACAUGAGGAUCACCCAUGUGGAUAGCGCAC [Brourd's EX4 #6] (Eterna round: R97, puzzle: Brourd's mod of Exclusion 4)	–	123	37.1	–	–	–
GGGCGCUUAGGAUAUACAUGAGGAUCACCCAUGUGGCUCUCCACGUUGCAUAACAUUCGUAGAAGGAAGCGCAU [Eternabot (L1) Solution 69] (Eterna round: R97, puzzle: Exclusion 3)	–	252	35.8	–	–	–

Sequence	apparent KD of MS2 coat protein [1] [nM]	apparent KD of MS2 coat protein (input ligand: FMN 200 uM) [nM]	apparent KD of MS2 coat protein (input ligand: none) [nM]	apparent KD of MS2 coat protein [2] [nM]	apparent KD of MS2 coat protein [3] [nM]	apparent KD of MS2 coat protein [4] [nM]
AUCAUGUCAGGAUAUAUGACAUGGCUCUUCGGAGCAAGAUCAUAGAAGGGACAUGAGGAUCACCCAUGUAGAUC [Ex4-3: 23] (puzzle: Exclusion 4)	195	–	–	41.9	188	–
CAUGAUCUUCGGAUCAUGUACAUGAGGAUCACCCAUGUUACGAGCAGAUCUUCAUACAAGCUUUUUGCUCGUCUUAU [Sensor v3 - Turn-off variant 1 - 34] (puzzle: Sensor v3, turn-off variant 1)	64.9	–	–	34.5	40.4	–
GGAUCGAGUGUGAGGAUAUGCAGGUCCUUGGAUCUGCAGAAGGCACAUGAGGAUCACCCAUGUGGAAACGGUCC [Mat - Exclusion 4 - JL Mod - D76] (puzzle: Brourd's mod of Exclusion 4)	58.9	–	–	–	–	–
GAUCGACAUGAGGAUCACCCAUGUCAGGAUAUCUACAUUGAAGCUGCGGCUUCAAUGUAGAGAAGGGAUAUAAU [E1/16-B1] (Eterna round: R97, puzzle: Exclusion 1)	–	36.9	27.2	–	–	–
GAGUGACAUGAGGAUCACCCAUGUGAGGAUAUCGGCCGGACCUUGUUAGCUUCCACCGCGAGAAGGCACAUCGG [Exclusion 1 V29] (puzzle: Exclusion 1)	20.3	–	–	–	–	–
CGCGUAGGAGGAUAUAUGGCAUACAACAUGAGGAUCACCCAUGUAGUCGCACGUUGGGAUAUAGAAGGCCUGCGAA [Eternabot (L1) Solution 87] (Eterna round: R97, puzzle: Exclusion 5)	–	18.3	20	–	–	–
AGGAAUGAAGGAUAUACAUGAGGAUCACCCAUGUAAAACAAGAGAUUUGAUGUAUAAUGUAGAAGGUCAAGAAG [JR_Exclusion3_Sub003] (puzzle: Exclusion 3)	30.5	–	–	25.2	35.5	–
UGUGUGCUGCGAGGAUAUACAUGAGGAUCACCCAUGUAAAUGUGUGAGGCUUUGCCUCACACAAUGUAGAAGGCGCAGUACACU [Mat - Exclusion NG 2 - Mod of JL - D4] (Eterna round: R96, puzzle: Exclusion NG 2)	–	16.9	11.6	–	–	9.63
ACAUGCCUUGCAGGAUAUAGGACACAUGAGGAUCACCCAUGUGGUUUCAUGUCUAACCAAGCGUCCUAGAAGGGCGGGAACAUG [Ex NG2 #28] (Eterna round: R96, puzzle: Exclusion NG 2)	–	44.9	36.5	–	–	25.8
GAUUGACAUGAGGAUCACCCAUGUGAGGAUAUCGGCUGGACCGUGUUGGCUUGCCUUUCGAGAAGGCGCAUAGG [Exclusion 1 V48] (puzzle: Exclusion 1)	32.4	–	–	–	–	–
GCCCUUAUUGUUAGGAUAUAACGGAAAUACAACCGUUAGAAGGAACAUGAGGAUCACCCAUGUGCCAUACAGCC [Eternabot (Original) Solution 39] (Eterna round: R97, puzzle: Brourd's mod of Exclusion 4)	–	119	29.5	–	–	–
GGAUUCUCGCAAGGAUAUCGCUUACAUCCUAAGCGAGAAGGUGCUACCAACUUGAGGAUCACCCAAGUGACUUGGGCCUAAAUA [Mutated MS2 EX1.27] (Eterna round: R96, puzzle: Exclusion NG 1)	–	112	62.9	–	–	34.2
CAGUGCGUAGGAUAUACGAGGGCCCUUUAUUGUUGAUAAUGACAUGAGGAUCACCCAUGUAGAAGGGCGUCAUG [Eternabot (L1) Solution 45] (Eterna round: R97, puzzle: Exclusion 2)	–	87.3	24.8	–	–	–
AAAUUGUGAGGAUAUCCAAUAUAUGACAUGAGGAUCACCCAUGUUUCCACUCGUACCUCCGGAGAAGGCACUUAAA [Ex5 #44] (Eterna round: R97, puzzle: Exclusion 5)	–	27.1	25.5	–	–	–
AAAUUACAAGCAAGAUCCUACAUGAGGAUCACCCAUGUGCUCGUCUUAUAAAGUACUAUCACGAAAGUGAUAGUACA [Mat - Sensor v3 - turn-off var 1 - Eli Mod - D58] (puzzle: Sensor v3, turn-off variant 1)	304	–	–	256	329	–
UUUUACCAAGGAUAUACAUUUUUUUUAUUAUUUUCAUUAUAACAUGAGGAUCACCCAUGUAGAAGGUGGAUUUU [My Design] (puzzle: Exclusion 2)	59.6	–	–	–	–	–
AAUACUAACACGAAAGUGUUAGUAAAAUAAGCUUGUGGUACAUGAGGAUCACCCAUGUCCUCAUAAGCUCGUCUUAU [Mat - Sensor v3 - Turn-off var 2 - D43] (puzzle: Sensor v3, turn-off variant 2)	75.4	–	–	23	21.4	–
